Four molecules from US20140087995A1 (published 2014) can be followed below.

The target in experiment [1] is T1, human calcitonin receptor (human, UniProt P30988 25-474).
T1 construct: whole, on cells; Used as cell membranes; also called hCTR; hCT
T1 sequence (looked up): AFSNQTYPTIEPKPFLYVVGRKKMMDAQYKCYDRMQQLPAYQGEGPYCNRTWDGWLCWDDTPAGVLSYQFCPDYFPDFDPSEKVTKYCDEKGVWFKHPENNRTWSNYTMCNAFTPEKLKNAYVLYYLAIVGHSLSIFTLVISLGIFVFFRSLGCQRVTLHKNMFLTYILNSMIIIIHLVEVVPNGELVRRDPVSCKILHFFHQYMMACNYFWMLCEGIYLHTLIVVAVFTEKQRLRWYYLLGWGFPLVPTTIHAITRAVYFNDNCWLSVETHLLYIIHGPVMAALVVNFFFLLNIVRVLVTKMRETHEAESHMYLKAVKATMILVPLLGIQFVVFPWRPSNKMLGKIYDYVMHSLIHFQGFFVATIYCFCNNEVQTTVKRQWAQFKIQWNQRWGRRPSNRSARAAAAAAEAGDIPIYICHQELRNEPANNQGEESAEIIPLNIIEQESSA
Nature of the experiment: ratio of hCTR IC50 to hAmylin-R IC50 (reference: human amylin receptor). The method, boiled down: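 Competition binding by SPA uses membrane preparations (35 ng/μL final) in pH 7.4 Hepes buffer with 1 mM CaCl2 and 5 mM MgCl₂. Incubation lasts 120 min at 25° C, and IC₅₀ comes from one-site fitting.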

Experiment [2] concerns the target T1, human calcitonin receptor. Put plainly: SPA competition on BHK cell membranes, 125I-calcitonin as radioligand (Assay VII). The gist of the method:
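BHK hCTR membranes 35 ng/μL + SPA beads 0.05 mg/well; buffer 50 mM Hepes pH 7.4, 1 mM CaCl2, 5 mM MgCl₂, 0.1% OA, 0.02% Tween20. 120 min, 25° C., shaking. Scintillation count; IC50 by one-site binding competition.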

Experiment [3] concerns the target T2, human amylin receptor (amylin 3(a) receptor: human calcitonin receptor with RAMP-3) (human, UniProt P30988 25-474; O60896 24-148).
T2 construct: whole, on cells; Used as cell membranes of the Amylin 3(a)/CRE-luc BHK cells; the species of RAMP-3 is only implied by the name human amylin receptor; also called hAmylin-R; hAmylinR
T2 sequence (looked up) 1: T1 sequence (looked up)
T2 sequence (looked up) 2: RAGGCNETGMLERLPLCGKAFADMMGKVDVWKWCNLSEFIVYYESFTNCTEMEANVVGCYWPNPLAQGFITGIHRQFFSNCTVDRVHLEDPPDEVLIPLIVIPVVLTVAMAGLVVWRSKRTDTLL
Put plainly: SPA competition on BHK cell membranes, 125I-rat amylin as radioligand (Assay V). On the procedure:
The binding assay was performed using scintillation proximity assay (SPA) beads (RPNQ0001) from PerkinElmer and cell membranes from the Amylin 3(a)/CRE-luc cells (as described in Assay (II)) were used. Membranes were prepared in the following way; the cells were rinsed with PBS and incubated with Versene for approximately 5 min before harvesting. The cells were flushed with PBS and the cell-suspension was centrifuged for 5 min at 1000 rpm. Cells were homogenized (ultrathurrax) in a buffer containing 20 mM Na-HEPES and 10 mM EDTA (pH 7.4) and centrifuged at 20.000 rpm for 15 min. The resulting pellet was resuspended, homogenized and centrifuged (20.000 rpm, 15 min) in a buffer containing 20 mM Na-HEPES and 0.1 mM EDTA (pH 7.4, buffer 2). The resulting pellet was resuspended in buffer 2 and protein concentration was measured (BCA protein Assay, Pierce). The homogenate was kept cold during the whole procedure. The membranes were kept at −80° C. until use. The assay was performed in a 384 well Optiplate (PerkinElmer) in a total volume of 40 ul. Membranes were mixed with SPA beads. Final concentration of membranes 35 ng/μL final and SPA beads was 0.05 mg/well. Test-compounds were dissolved in DMSO and further diluted in assay buffer (50 mM Hepes, pH 7.4, 1 mM CaCl2, 5 mM MgCl₂, 0.1% OA and 0.02% Tween20). […] The final mixture was incubated with shaking at 400 rpm for 120 min at 25° C. prior to centrifugation (1500 rpm, 10 min). Samples were analyzed on TopCounter™ (Packard). The IC₅₀ was calculated using (one site binding competition analysis) GraphPad Prism5 as a measure of receptor affinity.

Numbered stars: 1 amine (or outer) side, 2 acyl side, 3 side chain; on linkers, the order of the positions; unused ones are H or OH. Bridge positions count the residues as written; N and C are the ends. Side chains are listed from the residue outwards. Ends that are not written are not given here. * marks the point of attachment. C20 diacid = O=C(O)CCCCCCCCCCCCCCCCCCC(=O)*; γGlu = O=C(O)[C@H](CCC(=O)[*:2])N[*:1]

B1: N^-1-[(4S)-4-carboxy-4-(19-carboxynonadecanoylamino)butanoyl]-Gly[Arg1,His14,Arg17,Pro21,Pro27,His34]-h-amylin (peptide)
peptide: {C20 diacid-γGlu}-GRCNTATCATQRLAHFLRHSSPNFGAIPSSTNVGHNTY-NH2
modifications: disulfide 3-8
SMILES: CC[C@H](C)[C@H](NC(=O)[C@H](C)NC(=O)CNC(=O)[C@H](Cc1ccccc1)NC(=O)[C@H](CC(N)=O)NC(=O)[C@@H]1CCCN1C(=O)[C@H](CO)NC(=O)[C@H](CO)NC(=O)[C@H](Cc1c[nH]cn1)NC(=O)[C@H](CCCNC(=N)N)NC(=O)[C@H](CC(C)C)NC(=O)[C@H](Cc1ccccc1)NC(=O)[C@H](Cc1c[nH]cn1)NC(=O)[C@H](C)NC(=O)[C@H](CC(C)C)NC(=O)[C@H](CCCNC(=N)N)NC(=O)[C@H](CCC(N)=O)NC(=O)[C@@H](NC(=O)[C@H](C)NC(=O)[C@@H]1CSSC[C@H](NC(=O)[C@H](CCCNC(=N)N)NC(=O)CNC(=O)CC[C@H](NC(=O)CCCCCCCCCCCCCCCCCCC(=O)O)C(=O)O)C(=O)N[C@@H](CC(N)=O)C(=O)N[C@@H]([C@@H](C)O)C(=O)N[C@@H](C)C(=O)N[C@@H]([C@@H](C)O)C(=O)N1)[C@@H](C)O)C(=O)N1CCC[C@H]1C(=O)N[C@@H](CO)C(=O)N[C@@H](CO)C(=O)N[C@H](C(=O)N[C@@H](CC(N)=O)C(=O)N[C@H](C(=O)NCC(=O)N[C@@H](Cc1c[nH]cn1)C(=O)N[C@@H](CC(N)=O)C(=O)N[C@H](C(=O)N[C@@H](Cc1ccc(O)cc1)C(N)=O)[C@@H](C)O)C(C)C)[C@@H](C)O
notes: 38 residues; also called compound 100
For the molecule B1, in experiment [1], the “Ratio hCT/hAmylin binding” value was determined as 65.3. The IC50 is 66.3 nM in experiment [2] and 1.01 nM in experiment [3].

B2: N^ε1-[(4S)-4-carboxy-4-(19-carboxynonadecanoylamino)butanoyl]-[His14,Arg17,Pro21,Pro27,Arg34]-h-amylin (peptide)
peptide: K([γGlu-C20 diacid])CNTATCATQRLAHFLRHSSPNFGAIPSSTNVGRNTY-NH2
modifications: disulfide 2-7; N-terminus assumed
SMILES: CC[C@H](C)[C@H](NC(=O)[C@H](C)NC(=O)CNC(=O)[C@H](Cc1ccccc1)NC(=O)[C@H](CC(N)=O)NC(=O)[C@@H]1CCCN1C(=O)[C@H](CO)NC(=O)[C@H](CO)NC(=O)[C@H](Cc1c[nH]cn1)NC(=O)[C@H](CCCNC(=N)N)NC(=O)[C@H](CC(C)C)NC(=O)[C@H](Cc1ccccc1)NC(=O)[C@H](Cc1c[nH]cn1)NC(=O)[C@H](C)NC(=O)[C@H](CC(C)C)NC(=O)[C@H](CCCNC(=N)N)NC(=O)[C@H](CCC(N)=O)NC(=O)[C@@H](NC(=O)[C@H](C)NC(=O)[C@@H]1CSSC[C@H](NC(=O)[C@@H](N)CCCCNC(=O)CC[C@H](NC(=O)CCCCCCCCCCCCCCCCCCC(=O)O)C(=O)O)C(=O)N[C@@H](CC(N)=O)C(=O)N[C@@H]([C@@H](C)O)C(=O)N[C@@H](C)C(=O)N[C@@H]([C@@H](C)O)C(=O)N1)[C@@H](C)O)C(=O)N1CCC[C@H]1C(=O)N[C@@H](CO)C(=O)N[C@@H](CO)C(=O)N[C@H](C(=O)N[C@@H](CC(N)=O)C(=O)N[C@H](C(=O)NCC(=O)N[C@@H](CCCNC(=N)N)C(=O)N[C@@H](CC(N)=O)C(=O)N[C@H](C(=O)N[C@@H](Cc1ccc(O)cc1)C(N)=O)[C@@H](C)O)C(C)C)[C@@H](C)O
notes: also called compound 85
For B2, the “Ratio hCT/hAmylin binding” value in experiment [1] worked out at 91.8. The IC50 in experiment [2] was 80.4 nM; in experiment [3], 0.876 nM.

B3: N^ε1-[(4S)-4-carboxy-4-[[(4S)-4-carboxy-4-(19-carboxynonadecanoylamino)butanoyl]amino]butanoyl]-[Glu14,Arg17,Pro21,Pro27,Arg35]-h-amylin (peptide)
peptide: K([γGlu-γGlu-C20 diacid])CNTATCATQRLAEFLRHSSPNFGAIPSSTNVGSRTY-NH2
modifications: disulfide 2-7; N-terminus assumed
SMILES: CC[C@H](C)[C@H](NC(=O)[C@H](C)NC(=O)CNC(=O)[C@H](Cc1ccccc1)NC(=O)[C@H](CC(N)=O)NC(=O)[C@@H]1CCCN1C(=O)[C@H](CO)NC(=O)[C@H](CO)NC(=O)[C@H](Cc1c[nH]cn1)NC(=O)[C@H](CCCNC(=N)N)NC(=O)[C@H](CC(C)C)NC(=O)[C@H](Cc1ccccc1)NC(=O)[C@H](CCC(=O)O)NC(=O)[C@H](C)NC(=O)[C@H](CC(C)C)NC(=O)[C@H](CCCNC(=N)N)NC(=O)[C@H](CCC(N)=O)NC(=O)[C@@H](NC(=O)[C@H](C)NC(=O)[C@@H]1CSSC[C@H](NC(=O)[C@@H](N)CCCCNC(=O)CC[C@H](NC(=O)CC[C@H](NC(=O)CCCCCCCCCCCCCCCCCCC(=O)O)C(=O)O)C(=O)O)C(=O)N[C@@H](CC(N)=O)C(=O)N[C@@H]([C@@H](C)O)C(=O)N[C@@H](C)C(=O)N[C@@H]([C@@H](C)O)C(=O)N1)[C@@H](C)O)C(=O)N1CCC[C@H]1C(=O)N[C@@H](CO)C(=O)N[C@@H](CO)C(=O)N[C@H](C(=O)N[C@@H](CC(N)=O)C(=O)N[C@H](C(=O)NCC(=O)N[C@@H](CO)C(=O)N[C@@H](CCCNC(=N)N)C(=O)N[C@H](C(=O)N[C@@H](Cc1ccc(O)cc1)C(N)=O)[C@@H](C)O)C(C)C)[C@@H](C)O
notes: also called compound 89
As to B3, the “Ratio hCT/hAmylin binding” value in experiment [1] was 28. Besides, the IC50 in experiment [2] is 32.5 nM; in experiment [3], 1.16 nM.

B4: N^ε1-[(4S)-4-carboxy-4-[[(4S)-4-carboxy-4-(19-carboxynonadecanoylamino)butanoyl]amino]butanoyl]-[Arg17,Pro21,Pro27,His34]-h-amylin (peptide)
peptide: K([γGlu-γGlu-C20 diacid])CNTATCATQRLANFLRHSSPNFGAIPSSTNVGHNTY-NH2
modifications: disulfide 2-7; N-terminus assumed
SMILES: CC[C@H](C)[C@H](NC(=O)[C@H](C)NC(=O)CNC(=O)[C@H](Cc1ccccc1)NC(=O)[C@H](CC(N)=O)NC(=O)[C@@H]1CCCN1C(=O)[C@H](CO)NC(=O)[C@H](CO)NC(=O)[C@H](Cc1c[nH]cn1)NC(=O)[C@H](CCCNC(=N)N)NC(=O)[C@H](CC(C)C)NC(=O)[C@H](Cc1ccccc1)NC(=O)[C@H](CC(N)=O)NC(=O)[C@H](C)NC(=O)[C@H](CC(C)C)NC(=O)[C@H](CCCNC(=N)N)NC(=O)[C@H](CCC(N)=O)NC(=O)[C@@H](NC(=O)[C@H](C)NC(=O)[C@@H]1CSSC[C@H](NC(=O)[C@@H](N)CCCCNC(=O)CC[C@H](NC(=O)CC[C@H](NC(=O)CCCCCCCCCCCCCCCCCCC(=O)O)C(=O)O)C(=O)O)C(=O)N[C@@H](CC(N)=O)C(=O)N[C@@H]([C@@H](C)O)C(=O)N[C@@H](C)C(=O)N[C@@H]([C@@H](C)O)C(=O)N1)[C@@H](C)O)C(=O)N1CCC[C@H]1C(=O)N[C@@H](CO)C(=O)N[C@@H](CO)C(=O)N[C@H](C(=O)N[C@@H](CC(N)=O)C(=O)N[C@H](C(=O)NCC(=O)N[C@@H](Cc1c[nH]cn1)C(=O)N[C@@H](CC(N)=O)C(=O)N[C@H](C(=O)N[C@@H](Cc1ccc(O)cc1)C(N)=O)[C@@H](C)O)C(C)C)[C@@H](C)O
notes: also called compound 86
Turning to B4, the “Ratio hCT/hAmylin binding” value in experiment [1] is 159. The results for the IC50 in experiment [2] and in experiment [3] were 133 nM and 0.833 nM, respectively.

The term IC50 denotes the concentration needed to halve the response being measured.
